Experimental data from patent publication US20200123558A1 (UNIVERSITY OF SASKATCHEWAN AND NATIONAL RESEARCH COUNCIL OF …, published 2020).
Where two headings read alike, the source gives them in different places.

T1: Apc10 (yeast, UniProt P53068 1-250, limits assumed)
T1 construct: Expressed as a Y2H bait fusion; also called yeast Apc10 APC subunit; Apc10 bait
T1 sequence (looked up): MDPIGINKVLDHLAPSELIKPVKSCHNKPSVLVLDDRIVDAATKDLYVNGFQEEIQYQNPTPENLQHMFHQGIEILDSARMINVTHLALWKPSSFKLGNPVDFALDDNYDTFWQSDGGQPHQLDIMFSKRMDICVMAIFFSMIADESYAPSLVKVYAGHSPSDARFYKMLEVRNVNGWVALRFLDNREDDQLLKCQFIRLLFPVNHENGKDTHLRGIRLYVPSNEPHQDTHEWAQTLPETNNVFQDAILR

T2: Apc5 (yeast, UniProt Q08683 1-685, limits assumed)
T2 construct: Expressed as a Y2H bait fusion; also called Apc5 bait
T2 sequence (looked up): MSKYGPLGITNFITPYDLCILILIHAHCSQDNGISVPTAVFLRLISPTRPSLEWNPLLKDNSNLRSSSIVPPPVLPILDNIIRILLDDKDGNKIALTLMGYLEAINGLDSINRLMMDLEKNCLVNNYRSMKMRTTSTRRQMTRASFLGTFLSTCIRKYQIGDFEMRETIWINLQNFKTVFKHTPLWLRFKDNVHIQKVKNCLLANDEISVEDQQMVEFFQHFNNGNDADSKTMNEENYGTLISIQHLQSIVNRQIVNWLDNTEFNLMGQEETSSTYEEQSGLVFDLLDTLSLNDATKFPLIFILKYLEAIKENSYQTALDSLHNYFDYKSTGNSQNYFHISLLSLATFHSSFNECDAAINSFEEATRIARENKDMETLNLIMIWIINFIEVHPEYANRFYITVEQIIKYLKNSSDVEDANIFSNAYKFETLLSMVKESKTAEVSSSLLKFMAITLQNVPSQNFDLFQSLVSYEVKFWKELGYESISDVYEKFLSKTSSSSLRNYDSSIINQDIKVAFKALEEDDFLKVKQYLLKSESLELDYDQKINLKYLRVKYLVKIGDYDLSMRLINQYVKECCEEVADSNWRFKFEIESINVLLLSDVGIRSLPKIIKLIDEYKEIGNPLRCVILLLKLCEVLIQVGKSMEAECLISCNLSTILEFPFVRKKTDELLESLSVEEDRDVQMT


How the values were obtained:
Assay in all cases: yeast 2-hybrid
Apc10 [1] = molecular target: T1, Apc10
Apc10 [2] = molecular target: T1, Apc10; remark: listed apart in the source
Apc5 = molecular target: T2, Apc5

Binder	binding result (Apc10 [1])	binding result (Apc5)	further results
NGSSHNDLRVRRLTLISRLC (Shown in the assay as the variable loop of a Trx scaffold fused to a Y2H prey domain. The letters do not carry this., also called C43-4 aptamer; Htz1-like peptide; not shown: Thioredoxin (TrxA) scaffold flanking the loop and the Y2H prey fusion domain) [peptide C43-4]	binds		
NGSSHNDARVRRLTLISRLC (peptide, not shown: large carriers, Presumably shown in the Trx scaffold like its parent. The letters do not carry this., C43-4 with leucine 8 replaced by alanine; also called C43-L8A) [peptide C43-4-3]			binding result (Apc10 [2]): binds
RMPQWWQWMWV (Shown as the variable loop of the Trx scaffold on a Y2H prey vector. The letters do not carry this., also called 11-3; C2-4B aptamer; not shown: TrxA scaffold and Y2H fusion domain) [peptide C2-4B]		binds	
GRMLMTYLMYFMVLWVPRPWGPPL (Displayed in the assay as the variable loop of a TrxA scaffold fused to a Y2H prey domain; carrier not written., not shown: TrxA (thioredoxin) scaffold halves flanking the loop and the Y2H prey fusion domain) [peptide 1-8]	binds		

More lines, main results first:

binding result (Apc10 [1])	binding result (Apc5)	Binder	further results
	binds	SKWTWRMCMSWTVDRFAPVPWP (Displayed in the assay as the variable loop of a TrxA scaffold fused to a Y2H prey domain; carrier not written., not shown: TrxA (thioredoxin) scaffold halves flanking the loop and the Y2H prey fusion domain) [peptide 24-1]	
binds		RRCLSIRTENLAWEGKFLRV (Displayed in the assay as the variable loop of a TrxA scaffold fused to a Y2H prey domain; carrier not written., not shown: TrxA (thioredoxin) scaffold halves flanking the loop and the Y2H prey fusion domain) [peptide 50-1]	
